Here are results for 14 molecules from article PMC7498318.

B1: Exon 4 hp (structured_RNA)
RNA: GCUGGCGACCUAUUCCCUUUGACGAUCCCUAGGUGGAGAUGGGGCAUGAGGAUCCUCCAGGGGAAUAGCUCACCACC

The first data set deals with hnRNPK KH1 (human/mouse (100% identical), UniProt P61978 37-120). The data set can be described thus: fluorescence anisotropy. In general terms: In fluorescence polarisation assays a small probe gives low polarisation when free and higher when bound to something large.
For GCAGCCCCAGCCCCAGCCCCUACCCCUGCCCCUGCCCCUGC (structured_RNA) [B motif RNA WT], the binding result is “no binding”.

Another data set concerns the target T1, hnRNPK full-length (human/mouse (100% identical), UniProt P61978 1-463). The data set can be described thus: fluorescence anisotropy.
Take GCAGCCCCAGCCCCAGCCCCUACCCCUGCCCCUGUUUCUGC (structured_RNA) [(1,2,3,4,5)]: the binding result is reported as “binds”.
For the molecule GCAGCCCCAGCCCCAGCCCCUAUUUCUGUUUCUGUUUCUGC (structured_RNA) [(1,2,3)], the binding result is “binds”.
Same read-out and setting: to GCAGCCCCAGCCCCAGCCCCUACCCCUGUUUCUGUUUCUGC (structured_RNA) [(1,2,3,4)] belongs “binds”.

Another data set addresses hnRNPK deltaKH3 (human/mouse (100% identical), UniProt P61978 1-337). The data set can be described thus: fluorescence anisotropy.
As usually defined, the Kd is the equilibrium constant for the complex coming apart. High values mean a looser complex, low ones a tighter complex. In the case of GGCUCCCCCGACCUCUGUGCUCCCCUCCCCCGACCUCUGUGC (ssRNA) [MYU lncRNA], the dissociation constant Kd was found to be 120 ± 10 nM.
Consider GCCAACCUCUUCCCAUUUCCCACACUCCAACUCCCU (ssRNA) [Ucp2], for which binding was put at a Kd of 87 ± 9 nM.
GCAGCCCCAGCCCCAGCCCCUACCCCUGCCCCUGCCCCUGC (structured_RNA) [B motif RNA WT] gave a Kd of 140 ± 30 nM.
The same measure, in the same setting: the value for GUCAUUUUCUCCCUUUCUGUUUUUCUUC (ssRNA) [Rab7] was 360 ± 80 nM.
Consider GCGCCUCCCGGGUUCAAGCGAUUCUCCUGCCUCAGCCUCCCGA (ssRNA) [Sirloin motif], for which binding was characterised by a dissociation constant (Kd) of 760 ± 40 nM.
The molecule GGUCCCCCGCCUCAUUCGCCCCUCUGCUCCC (ssRNA) [CDK6 3'UTR] returned a Kd of 710 ± 50 nM.

Another data set deals with hnRNPK KH3 (human/mouse (100% identical), UniProt P61978 379-463). The data set can be described thus: fluorescence anisotropy.
GCCAACCUCUUCCCAUUUCCCACACUCCAACUCCCU (ssRNA) [Ucp2] gave a Kd of 11100 ± 600 nM.
Turning to ATATTCCCTC (ssDNA) [M5' ssDNA], the Kd amounted to 8700 ± 1300 nM.
For the molecule GGUCCCCCGCCUCAUUCGCCCCUCUGCUCCC (ssRNA) [CDK6 3'UTR], the Kd was found to be 12900 ± 700 nM.

Another data set deals with T1, hnRNPK full-length. The data set can be described thus: fluorescence anisotropy. The source holds these as a separate data set.
Take GGCUCCCCCGACCUCUGUGCUCCCCUCCCCCGACCUCUGUGC (ssRNA) [MYU lncRNA]: the affinity, expressed as Kd, was 70 ± 7 nM.
On the same count and under the same terms, the value for GCCAACCUCUUCCCAUUUCCCACACUCCAACUCCCU (ssRNA) [Ucp2] was 44 ± 3 nM; that for GCAGCCCCAGCCCCAGCCCCUACCCCUGCCCCUGCCCCUGC (structured_RNA) [B motif RNA WT] was 61 ± 6 nM; that for ATATTCCCTC (ssDNA) [M5' ssDNA] was 1400 ± 200 nM.
In the case of GCAGUUUCAGCCCCAGCCCCUAUUUCUGUUUCUGUUUCUGC (structured_RNA) [(2,3)], the Kd came to 710 nM.
GUCAUUUUCUCCCUUUCUGUUUUUCUUC (ssRNA) [Rab7] returned a Kd of 110 ± 20 nM.
As to B1, the binding result is reported as “no binding”.
GCGCCUCCCGGGUUCAAGCGAUUCUCCUGCCUCAGCCUCCCGA (ssRNA) [Sirloin motif] yielded an equilibrium dissociation constant (Kd) of 690 ± 20 nM.
Turning to GGUCCCCCGCCUCAUUCGCCCCUCUGCUCCC (ssRNA) [CDK6 3'UTR], the Kd turned out to be 450 ± 60 nM.

For another data set, the target named is hnRNPK R9 to S9 (human/mouse (100% identical), UniProt P61978 1-463, R247S;R256S;R258S;R268S;R287S;R296S;R299S;R316S;R326S). The data set can be described thus: fluorescence anisotropy.
As for ATATTCCCTC (ssDNA) [M5' ssDNA], the Kd worked out at 3000 ± 100 nM.

Another data set has as its target T1, hnRNPK full-length. The data set can be described thus: fluorescence anisotropy. The source holds these as a separate data set.
Consider GCAGCCCCAGUUUCAGUUUUUAUUUCUGUUUCUGCCCCUGC (structured_RNA) [(1,6)], for which the binding result is reported as “no binding”.
For GCAGCCCCAGUUUCAGCCCCUAUUUCUGUUUCUGUUUCUGC (structured_RNA) [(1,3)], the binding result was “no binding”.
